Assay results reported in the supplement of paper PMC7877785.
± gives the uncertainty stated by the source.

Assay: self-splicing fitness, log relative to wild type (ln ratio); higher = more splicing; Tetrahymena group I intron in knt gene, E. coli kanamycin selection, DiMSum; sequences stand for … in CUCUCU…GGAGGGAAAAGUUAUCAGGCAUGCACCUGGUAGCUAGUCUUUAAACCAAUAGAUUGCAUCGGUUUAAAAGGCAAGACCGUCAAAUUGCGGGAAAGGGGUCAACAGCCGUUCAGUACCAAGUCUCAGGGGAAACUUUGAGAUGGCCUUGCAAAGGGUAUGGUAAUAAGCUGACGGACAUGGUCCUAACCACGCAGCCAAGUCCUAAGUCAACAGAUCUUCUGUUGAUAUGGAUGCAGUUCACAGACUAAAUGUCGGUCGGGGAAGAUGUAUUCUUCUCAUAAGAUAUAGUCGGACCUCUCCUUAAUGGGAGCUAGCGGAUGAAGUGAUGCAACACUGGAGCCGCUGGGAACUAAUUUGUAUGCGAAAGUAUAUUGAUUAGUUUUGGAGUACUCGUGGUCG
Summary of the method: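 The eight P1ex-region nucleotides of an intron in the knt kanamycin-resistance gene on pET-22b(+) were all randomised and the library put into E. coli BL21(DE3). Six replicate transformations were grown overnight at 37°C or 30°C on LB agar with or without 25 μg/mL kanamycin, together with 100 μg/mL carbenicillin, 50 μM IPTG and 0.2% rhamnose. Colonies were pooled and amplicon-sequenced on an Illumina HiSeq 2500. Fitness from DiMSum is the error-weighted combination of wild-type-normalised replicate fold changes, kanamycin over none.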

Sequence	self-splicing fitness (ln) (30 °C)	self-splicing fitness (ln) (37 °C)
UGGGAGCAAUAUUACGGCGC	-1.12 ± 0.38	–
AUCUAGCAAUAUUACGUGGA	-2.71 ± 0.24	-2.91 ± 0.26
GUAAAGCAAUAUUACGGACU	-0.753 ± 0.061	-0.471 ± 0.082
AUGAAGCAAUAUUACGCUCG	-0.0634 ± 0.1	0.31 ± 0.16
UAAAAGCAAUAUUACGUAGU	-3.36 ± 0.12	-2.83 ± 0.14
GAAAAGCAAUAUUACGAUUC	-2.34 ± 0.17	-1.42 ± 0.15
GGACAGCAAUAUUACGACAG	-3.31 ± 0.21	-2.33 ± 0.27
GCCGAGCAAUAUUACGAGAC	-2.93 ± 0.11	-1.54 ± 0.1
ACAGAGCAAUAUUACGAUGG	-3.24 ± 0.14	-3.32 ± 0.23
GCUCAGCAAUAUUACGCGAC	-3.49 ± 0.3	0.167 ± 0.16
GUGUAGCAAUAUUACGGUCC	-1.7 ± 0.23	-0.716 ± 0.25
UGUCAGCAAUAUUACGACUA	-0.425 ± 0.073	0.686 ± 0.11
AAGAAGCAAUAUUACGUGUG	-2.3 ± 0.09	-0.663 ± 0.081
AUGCAGCAAUAUUACGGCAC	-1.72 ± 0.25	-1.29 ± 0.26
UCAUAGCAAUAUUACGUAGU	-3.07 ± 0.21	-2.17 ± 0.28
GAUGAGCAAUAUUACGGCAG	–	-2.52 ± 0.41
CCGAAGCAAUAUUACGCUCA	-3.65 ± 0.33	-3.47 ± 0.42
GUGUAGCAAUAUUACGCCAG	–	-1.12 ± 0.5
ACCAAGCAAUAUUACGGGUC	-4.12 ± 0.17	-2.67 ± 0.14
UGAGAGCAAUAUUACGAUAC	-3.92 ± 0.46	-1.91 ± 0.34

Sequence	self-splicing fitness (ln) (30 °C)	self-splicing fitness (ln) (37 °C)
AGAAAGCAAUAUUACGGACG	-0.883 ± 0.085	-0.116 ± 0.13
UGCUAGCAAUAUUACGUGUU	-3.87 ± 0.16	-2.21 ± 0.12
GCAGAGCAAUAUUACGUUAG	-3.42 ± 0.26	-1.61 ± 0.17
CCAAAGCAAUAUUACGCAGG	-3.23 ± 0.15	-3.74 ± 0.27
CGUUAGCAAUAUUACGUUGA	-3.1 ± 0.22	-2.25 ± 0.17
UGGGAGCAAUAUUACGUGCG	-1.56 ± 0.11	-0.551 ± 0.14
UGUCAGCAAUAUUACGCCUC	-2.62 ± 0.42	–
CUCUAGCAAUAUUACGCCGG	-2.98 ± 0.31	-1.92 ± 0.45
AGCGAGCAAUAUUACGACAC	-1.34 ± 0.34	–
CUCAAGCAAUAUUACGGUCC	-3.02 ± 0.22	0.396 ± 0.18
GGCCAGCAAUAUUACGAGGA	–	-1.26 ± 0.15
GGCAAGCAAUAUUACGUUCC	-1.43 ± 0.11	-0.714 ± 0.14
GGCCAGCAAUAUUACGGCUG	-1.41 ± 0.12	-0.562 ± 0.2
UUGAAGCAAUAUUACGUUAG	-0.587 ± 0.1	0.138 ± 0.12
AGACAGCAAUAUUACGAGUA	-3.42 ± 0.21	-1.47 ± 0.15
UAGAAGCAAUAUUACGUUCA	-0.483 ± 0.063	0.196 ± 0.082
AACGAGCAAUAUUACGAGAA	-1.87 ± 0.22	-1.56 ± 0.33
CCUAAGCAAUAUUACGGGUG	-2.47 ± 0.077	-1.11 ± 0.073
CUUCAGCAAUAUUACGACAA	-2.42 ± 0.21	-2.52 ± 0.31
GAAUAGCAAUAUUACGCACC	-1.19 ± 0.23	0.185 ± 0.32
